In US20160264684A1, “GLYCAN-INTERACTING COMPOUNDS AND METHODS OF USE” (SIAMAB THERAPEUTICS, INC., priority 2013, published 2016):

Columns and labels:
E3-STn cells = experiment: E3-STn transfected murine breast tumor allograft model, tumor volume; format: in vivo, mouse; conditions: 7G9-1A8 25 mg/kg ip twice weekly 3 weeks, Paclitaxel daily 5 days
Description: 3 test articles were evaluated during the study.
Standard deviation values are listed in parenthesis.

[1] = E3-STn allograft model, complete blood count (CBC); format: in vivo, mouse; design: Red blood cells / White blood cells: unit not given here; conditions: CBC at end of study, antibody-treated mice
Description: At the end of the study, a complete blood count (CBC) was obtained for 5 mice treated with antibody as well as 3 mice treated with vehicle control. Blood was collected from all mice via terminal cardiac puncture and processed for plasma. Blood was placed in EDTA microtainer tubes (BD & Co., Franklin Lakes, N.J.) then centrifuged. Plasma layers were then removed and snap frozen in cryo vials (Thermo-Fisher Scientific, Rochester, N.Y.) and stored at −80° C. until analysis. Analysis was carried out to look for levels of a variety of factors.

[2] = Pathological evaluation of organs (H&E); format: in vivo, mouse
Description: At the end of the study described in Example 22, three mice from the vehicle control group and five mice that received 7G9-1A8 were chosen at random for post-study pathology assessment. Brain, colon, intestine, heart, kidney, liver, lung, mandibular salivary gland, pancreas, spleen, stomach, adrenal gland and thyroid gland organs were collected from each mouse. The organs were fixed in formalin (VWR; Radnor, Pa.) for about 48 hours, transferred to 70% ethanol (Sigma-Aldrich; St. Louis, Mo.), and then processed for standard H&E staining.
The H&E stained tissue slides were examined for pathology review. Liver sections from each animal had multifocal inflammation with or without concomitant hepatocellular necrosis. The histo-pathological changes were minimal to mild in severity. There was no appreciable difference in the morphology of lesions among vehicle control group mice and mice that received 7G9-1A8.

[3] = mouse, in vivo
Description: 50 female Balb/cmice were inoculated with E3-STn cells to cause STn-expressing tumor formation when they were 5 weeks old. Mice were housed in individually ventilated microisolator cages, and maintained under pathogen-free conditions with irradiated feed and autoclaved water. […] Beginning on the first day of the study, body weight and tumor volumes were recorded twice weekly. 33 mice with mean tumor volume between 100 and 150 mm^3 were selected for randomization.
Antibodies and vehicle control were administered by intraperitoneal injection, twice weekly for 7 weeks.
The average weight of mice in each treatment group was also determined on days 1, 5, 8, 12, 15, 19, 22, 26, 29, 33, 36, 40, 43, 47 and 50 following the first administration of each test article (see Table 19). The percent gain or loss over initial weight values is listed in parentheses.

B1: 7G9-1A8: 7G9-1A8 IgG2b κ antibody; heavy chain variable domain SEQ ID NO 12, light chain SEQ ID NO 9 (antibody, V domains shown)
VH: QVQLKESGPGLVAPSQNLSITCTVSGFSLTSYGVNWVRQPPGKGLEWLGVIWGDGSTNYHSALISRLIISKENSKSQVFLKLNSLQTNDTATYYCTKGFVYWGQGTLVTVSA
VL: QIVLTQSPAIMSASPGEKVTMTCSASSSVSYMHWYQQKSGTSPKRWIFDTSKLASGVPARFSGSGSGTSYSLTISSMEAEDAATYYCQQWSSNLLTFGAGTKLELK
Which “Average Tumor Volume” value (E3-STn cells; day 1 of treatment) does the source give for B1 here?
The value was 112.4 mm^3.

And the “Average Tumor Volume” value (E3-STn cells; day 4 of treatment)?
Its value is 148.7 mm^3.

What about the “Average Tumor Volume” value (E3-STn cells; day 6 of treatment) of the same molecule?
Its value is 161.9 mm^3.

What about the “Average Tumor Volume” value (E3-STn cells; day 8 of treatment) of the same molecule?
The value was 152.8 mm^3.

What about the “Average Tumor Volume” value (E3-STn cells; day 11 of treatment) of the same molecule?
The value was 136.3 mm^3.

And the “Average Tumor Volume” value (E3-STn cells; day 13 of treatment)?
The value was 118.4 mm^3.

What about the “Average Tumor Volume” value (E3-STn cells; day 15 of treatment) of the same molecule?
The value was 105.1 mm^3.

And the “Average Tumor Volume” value (E3-STn cells; day 18 of treatment)?
The value was 99.5 mm^3.

And the “Average Tumor Volume” value (E3-STn cells; day 20 of treatment)?
The value was 91.7 mm^3.

What about the “Average Tumor Volume” value (E3-STn cells; day 22) of the same molecule?
The value was 105.2 mm^3.

What about the “Average Tumor Volume” value (E3-STn cells; day 26) of the same molecule?
The value was 102.8 mm^3.

What about the “Average Tumor Volume” value (E3-STn cells; day 27) of the same molecule?
Its value is 107.4 mm^3.

And the “Average Tumor Volume” value (E3-STn cells; day 29)?
Its value is 147.1 mm^3.

What about the “Average Tumor Volume” value (E3-STn cells; day 32) of the same molecule?
The value was 160.6 mm^3.

What about the “Average Tumor Volume” value (E3-STn cells; day 34) of the same molecule?
Its value is 164.7 mm^3.

And the “Average Tumor Volume” value (E3-STn cells; day 36)?
Its value is 212.1 mm^3.

And the “Average Tumor Volume” value (E3-STn cells; day 39)?
Its value is 206.6 mm^3.

What about the “Average Tumor Volume” value (E3-STn cells; day 41) of the same molecule?
The value was 235.3 mm^3.

And the “% Lymphocytes” value [1]?
The value was 44.4%.

What about the “% Monocytes” value [1] of the same molecule?
The value was 4.6%.

And the “% Neutrophils (Segmented)” value [1]?
Its value is 51.0%.

And the Hematocrit [1]?
Its Hematocrit is 46.9%.

What about the Hemoglobin [1] of the same molecule?
The Hemoglobin was 16.0 g/dL.

What about the Lymphocytes [1] of the same molecule?
The Lymphocytes was 5.6 10^9/L.

What about the “Mean Corpuscular Hemoglobin” value [1] of the same molecule?
The value was 16.2 pg.

What about the “Mean Corpuscular Hemoglobin Concentration” value [1] of the same molecule?
The value was 34.2 g/dL.

And the “Mean Corpuscular Volume” value [1]?
The value was 47.4 fL.

What about the Mean platelet volume [1] of the same molecule?
Its Mean platelet volume is 7.4 fL.

And the Monocytes [1]?
The Monocytes was 0.7 10^9/L.

What about the Neutrophils [1] of the same molecule?
Its Neutrophils is 7.6 10^9/L.

What about the “Platelet Cell Distribution Width” value [1] of the same molecule?
The value was 32.2%.

And the Platelet count [1]?
Its Platelet count is 712.2 10^3.

And the “Red Cell Distribution Width” value [1]?
The value was 19.0%.

And the Red blood cells [1]?
Its Red blood cells is 9.9.

And the White blood cells ([1]; blood by terminal cardiac puncture)?
The White blood cells was 13.9.

And the “liver histo-pathology vs vehicle control group” value ([2]; 5 treated, 3 vehicle mice)?
The value was “no significant difference between the groups”.

And the “neutrophil aggregation in the muscularis mucosa of the stomach” value ([2]; seen in two vehicle control mice)?
Its value is “not observed”.

And the “weight gain over the course of treatment as compared to vehicle control” value [3]?
Its value is “higher percent gain in weight”.
